Data: the supplement of paper PMC12636428

Each sequence was assayed on Saccharomyces cerevisiae (assay: transcriptional activation domain activity (GFP:mCherry ratio, weighted mean of sorted bins, harmonized to initial dataset scale) (arbitrary fluorescence ratio units); higher = stronger transcriptional activation). Conditions: beta-estradiol 1 µM; induction time 4 h.
Experimental: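 53-aa protein tiles (fungal proteins plus yeast TF control tiles) fused C-terminally to a DBD-estrogen-binding domain-mCherry synthetic TF, integrated in S. cerevisiae (URA3 locus) with a GFP reporter. Cells were induced with 1 uM beta-estradiol for 4 h at 30 C, FACS-sorted into 8 bins by GFP:mCherry ratio and barcodes sequenced. Activity is the read-weighted mean bin fluorescence (GFP:mCherry), averaged over barcodes (median 12); tiles under 50 reads were discarded. New active-learning values were harmonized by linear fit onto the scale of the initial (Hummel et al.) dataset. The assay saturates at low and high signal.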

Row | Sequence | transcriptional activation domain activity
1 | EAVPHQDNDSFRSEKKEGEAEVQIVEDVGSSIYGCDRTQRTLKNRHIQLIGVG | 50200
2 | EAWILHMVVILGVNYLFTFYVWDFSYTDTELWNVTCYWKLGWLLPIPYTLICF | 51000
3 | EAYPEPEEEPTMEPIDLSDDALLQVSYRLQKQNLSSSIVLLLTNRCLFISKPY | 49400
4 | EDAEATPAAAVEAEDDAMVVDSEEPKKKSKKDKKEKKDKKRKAAETTEAETAN | 16400
5 | EDAGDDAAPSAKKANVSKKRKKADESDGENDKPVKTPKTKLKLTTKTPKEPSA | 36100
6 | EDASAGEGEEKKKRKKKKVEASSDEEGSGSDGSKRKSQSKRTKSSKKGRSDNG | 40700
7 | EDCDFLGDDTCSIVNHINCQHGINFDIQFANPDSFLPGSISKEKHHLLHCPNP | 77900
8 | EDDDERRRKESSSSSRRKDRDRDDDGHERKDRKDRKHGSHRDRETDREREKRK | 33000
9 | EDDDGKGNKQKTSEKRKLQNRQAQRNFRERKEKVSCPSSPAAPRASQGTRGSC | 23900
10 | EDDEELVEEVAKKGKGKGKGKAGKAAAAIGAAEGGKGRRGRKPKAKGAEEQGE | 60600
11 | EDEAPEPEAEEKKPSAKGRRASKVKQENDEEPEPEPVKQVAKAKRGSKKAVKE | 40200
12 | EDEAQGEEGEKAKKSRKRKRDEAAEGGKQKKEKAPPKPRAKKGSAEPKPKKAA | 25900
13 | EDEASASTDNDEATTKTEKQPKKKAKAEKVADCEAVVKKKAPAKRQSKKEANQ | 41600
14 | EDEASQPAKPRARPAPSRAQNRSKEKSSKTARKRKDKSPPASQQEPEQDEGSE | 18600
15 | EDEEASAAHAAPPTTTTAGGRGKKKKGGASRKKENSAAPSKSAKASAPANIPP | 20700
16 | EDEEDAVNGTALSEEDAAERDAKLKRLREEAERKALARRSQAVQRGLPRPANV | 14900
17 | EDEEDLSSKPRCQRCRKSKKGCDRQRPCQRCKDAGLSADQCVSEDEGNGRKGR | 15700
18 | EDEEEAPAKVIKAKRAPPKRKAPAKDDDDEESAEEKPKKKKAPSKKAAAKAQA | 38200
19 | EDEEEEAEKAESKPPKKARKSKAEPAVDEDEPAVKPKKKATAASKKRKAESEE | 21100
20 | EDEEEEEEEQEEEEEKEEEVLWAAAPEGGKPVEEEEEEEVVEAEEKKPGEEDA | 24500
21 | EDEEESSKEETEKQRNKLRELIYEFIAKDVASRVELAKYWLSEEWNCAVGPQT | 35300

Row | Sequence | transcriptional activation domain activity
22 | EDEEETAAARSTSKRTRRGRVLDDSDEEDDEAGTVSPAKAATGAESEGEAGAA | 30000
23 | EDEETARPKRKSPSAVLKSHTARVSRAVFGRDAKGASAYSCGFDSTVRTWDVE | 49700
24 | EDEGEKDDDEEVKEVKEEGDNSGEEGKEGNGEEAKTEEDKPSEEQQQQAKEEA | < 6570
25 | EDENKSKEETQEKKTNEPELNENNKDIAKKGEEEEEEEEADKDNNKTKKKKKN | 27500
26 | EDEQPAAPADGRKKTVTKGADKAGLGGTPVRKNATTAGRGRKPATAKKGASQP | 32300
27 | EDGDVDMGEADDKPAEPEAEIKTEEVETAAAPEPETEPKSTPAVPAAAAAAAA | 24500
28 | EDGEQKKQVLACSFCRERKIACGRPSAHSRDRTCNQCARRCMKCEHPTESRRG | 13800
29 | EDGESTKTKDAGRKRKRSTGEGEREDKGADGTKENKKKRKLASEKEKESDKEN | 27400
30 | EDGGEDGETGGKILTKAEKEKQKKEREKQRKKEQATPAKAAAEEKKVEAAPAA | 32100
31 | EDGNGHGTHCSGTIAGKKYGVAKKAHVYAVKVLRSNGSGSMSDVVKGVEFAAT | 42400
32 | EDGRGSRRRKSRSRGREEEDSSSRRRKDRSRSRSVDKERKKRKRDKSEDRKAR | 31800
33 | EDKAAEDGAAKKPKTTELPGGVKIQDMKVGSGPQAKPGKKIGMRYIGKLQGSN | 30600
34 | EDLRAAMEEEEEVEENEAEEEWVDVMKKHRVQASRLELLASGVGTGRTTSPVD | 15900
35 | EDRHSSKRRRERSRSPVRDTRRRSRSPAARGKNDEDRRDRRRSSSRERDRRRG | 32600
36 | EDRSEKRKRKRDDEVEPKKSKSKWKPEEKSDEDPKSTPKSNGGKRRRPERPEK | 27300
37 | EDSEEKPRKKTPRKAAASKPKSKGKKKADSDSGEESDAEPRAKKSATKGKGKK | 25500
38 | EDSEPEPQPQKSQSRRRQSRGRGRRGGDSDNESVARSDVSASGGRRNRQRKQK | 22200
39 | EDTVHSVRVKAHRMKKSESGETGWAELGVGVLRLKTHKETASRRMLLRNSGNG | 58000
40 | EEAAAPAASKGQGTAAAASGRSRNRRRGAGEDGKGKAERGGEAMTSAPSPAKP | 13400
41 | EEAAVESEAPKKKGRAKRVKPEPEVDDEPAVEQPKKKGRVKKAKVEPEPEADE | 46900
42 | EEAEKVPEKKPKAEEKAAEDGESSNPVHKCWNCGRTKSAVWRTKVMEDGKAVR | 33200

Row | Sequence | transcriptional activation domain activity
43 | EEAFVAINLRNLLTFGLTYFINDWILDDGVLFVFCILGMLFLVVCLMTIPLWI | 29000
44 | EEDAGATSEPASTPKLKPETKPKPKAAPKPKPKAEETDSSAKPKAKPKARASS | 33000
45 | EEDDVKSEKSSRSKRRESTKEEVASPVRSERGSDKSSRSKKRDIVAEAAAIVS | 35500
46 | EEDEEDEDDDDDDDDDDDDDDDDDDEKPVHHKKPAHHRHHHKSKPVHHESQPA | < 6570
47 | EEDEETSHEVRSKVYKLVKKSDGNQEWNDMGVETGSRRVLLRNSSTGKIVINF | 25400
48 | EEDLWTMTNLFVSPVARSLPCTSLLLCLCSLLVYLLASLTFPYLAFFLVFILF | 53000
49 | EEDNHSGDDNEDDHDSSGVDDDHGGGGDEDDGDGGEGDGGDVMQLYFIHNIIL | 37400
50 | EEDSKVSVDVDRPAKRGRGRPPKPKDPNAPPPKPKSGRGRGRPPKAKPVEVAG | 39800
51 | EEEAELAKPAKRPRESDATERDASTGDEVSKKKSKKLKAENGAPVAAPAGTSG | 39300
52 | EEEAEPKPAASAPAVAPAADEEGDDQGGDDAAKKKKKKKKGKKDEDAEPAPAA | 35300
53 | EEEAPEDNSGPRQGAKPAKRAHARARAPKCSGPTNAKVNGKGRARRSGRPAKK | 24900
54 | EEEAVVSAATDEAVKEEGRQVDAGSADAGGEAAAPRKKIRKRSKAKPTPEQKL | 21200
55 | EEEDGEEDYGNRLFVIASDKLQEEQLLIDVPPGNILSSNLLQVLKEILKTRKK | 26100
56 | EEEDGQSEPDSARAPRKAKSKTRAATDGEDESEARSKPKASRKGRRKVEASDA | 24000
57 | EEEDRHRHSRHRSKRSRSRTYSEERHRSRTRDSARRSKTRTKSPDERPPASED | 40900
58 | EEEEDAETPAQESEEEKAASEPSSPPVVQQIPRKKRLGRPPKNRPPDWNAVEP | 37600
59 | EEEEEEEGGETKKKRRRAASAAAKGRKGGRKSTASEEDEVVGGEESENRASKK | 25400
60 | EEEEEEERPAKRQKKKLAAEEDEEEGEGEGEEEEEEEERPAKRQKKKPAAEDE | 26900
61 | EEEEPSDEGEGEELDENGDVVMADVSQKSTKSKKEEPAQRYIGSVEVLSKLNL | < 6570
